Reference: patent publication US20200317768A1 (published 2020)
Residue numbers refer to the chain shown, from its start. Names may count otherwise.

Legend:
[1] = biological target: T1, cynomolgus monkey FcγRIIa1 extracellular domain, C-terminal His-tag (cynomolgus monkey); assay: SPR (BIACORE), antibody captured, FcγR analyte
T1 construct: also called cyno FcγRIIa1; cynoFcgRIIa1; not shown: His-tag added to C-terminus
T1 chain: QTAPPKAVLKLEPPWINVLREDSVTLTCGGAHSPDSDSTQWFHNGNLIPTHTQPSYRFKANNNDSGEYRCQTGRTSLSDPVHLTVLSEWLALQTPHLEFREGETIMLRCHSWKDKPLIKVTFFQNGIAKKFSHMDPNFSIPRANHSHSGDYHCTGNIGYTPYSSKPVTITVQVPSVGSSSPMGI

[2] = biological target: T2, cynomolgus monkey FcγRIIa2 extracellular domain, C-terminal His-tag (cynomolgus monkey); assay: SPR (BIACORE), antibody captured, FcγR analyte
T2 construct: also called cyno FcγRIIa2; cynoFcgRIIa2; not shown: His-tag added to C-terminus
T2 chain: T1 chain with P95T, T121A, I127K, A128S, K130N, D135N, R142Q

[3] = biological target: T3, cynomolgus monkey FcγRIIa3 extracellular domain, C-terminal His-tag (cynomolgus monkey); assay: SPR (BIACORE), antibody captured, FcγR analyte
T3 construct: also called cyno FcγRIIa3; cynoFcgRIIa3; not shown: His-tag added to C-terminus
T3 chain: T1 chain with P95T, T121A, A128S, H133P, D135N

[4] = biological target: T4, cynomolgus monkey FcγRIIb extracellular domain, C-terminal His-tag (cynomolgus monkey); assay: SPR (BIACORE), antibody captured, FcγR analyte
T4 construct: also called cyno FcγRIIb; cynoFcγRIIb; not shown: His-tag added to C-terminus
T4 chain: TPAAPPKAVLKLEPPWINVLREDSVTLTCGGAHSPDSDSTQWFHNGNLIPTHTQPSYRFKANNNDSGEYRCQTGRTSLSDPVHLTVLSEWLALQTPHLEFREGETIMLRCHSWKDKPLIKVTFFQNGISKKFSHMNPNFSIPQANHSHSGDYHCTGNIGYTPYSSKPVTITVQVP

[5] = biological target: T5, cynomolgus monkey FcγRIIIaS extracellular domain, C-terminal His-tag (cynomolgus monkey, UniProt A3RFZ7 21-206 (rhesus entry)); assay: SPR (BIACORE), antibody captured, FcγR analyte
T5 construct: also called cyno FcγRIIIaS; cynoFcγRIIIaS; not shown: His-tag added to C-terminus
T5 sequence (A3RFZ7 21-206): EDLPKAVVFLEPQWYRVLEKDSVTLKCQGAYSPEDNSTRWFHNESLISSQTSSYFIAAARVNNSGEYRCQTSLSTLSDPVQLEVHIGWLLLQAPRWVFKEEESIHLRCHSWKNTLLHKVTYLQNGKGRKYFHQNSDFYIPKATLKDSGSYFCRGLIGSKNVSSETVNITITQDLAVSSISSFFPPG

[6] = biological target: T6, human FcγRIIaH extracellular domain, C-terminal His-tag (human, UniProt P12318 34-217); assay: SPR (BIACORE), antibody captured, FcγR analyte
T6 construct: also called human FcγRIIa (type H); FcgRIIaH; not shown: His-tag added to C-terminus
T6 sequence: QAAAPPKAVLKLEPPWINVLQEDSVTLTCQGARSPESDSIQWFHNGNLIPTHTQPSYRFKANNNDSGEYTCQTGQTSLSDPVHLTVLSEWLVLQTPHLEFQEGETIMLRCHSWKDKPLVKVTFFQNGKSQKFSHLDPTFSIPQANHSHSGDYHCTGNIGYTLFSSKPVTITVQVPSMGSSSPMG

[7] = biological target: T7, human FcγRIIaR extracellular domain, C-terminal His-tag (human, UniProt P12318 34-217); assay: SPR (BIACORE), antibody captured, FcγR analyte
T7 construct: also called human FcγRIIa (type R); FcgRIIaR; not shown: His-tag added to C-terminus
T7 chain: T6 sequence with H134R

[8] = biological target: T8, human FcγRIIb extracellular domain, C-terminal His-tag (human, UniProt P31994 43-217); assay: SPR (BIACORE), antibody captured, FcγR analyte
T8 construct: also called humanFcgRIIb; not shown: His-tag added to C-terminus
T8 sequence: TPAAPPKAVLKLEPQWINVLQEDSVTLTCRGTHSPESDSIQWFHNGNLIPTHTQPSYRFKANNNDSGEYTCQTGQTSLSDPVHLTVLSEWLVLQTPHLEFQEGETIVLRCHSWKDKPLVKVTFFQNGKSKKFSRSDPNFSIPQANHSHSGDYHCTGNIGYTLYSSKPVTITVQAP

[9] = biological target: T9, human FcγRIIIaV extracellular domain, C-terminal His-tag (human, UniProt P08637 17-208); assay: SPR (BIACORE), antibody captured, FcγR analyte
T9 construct: also called FcgRIIIaV; not shown: His-tag added to C-terminus
T9 sequence (P08637 17-208 F176V): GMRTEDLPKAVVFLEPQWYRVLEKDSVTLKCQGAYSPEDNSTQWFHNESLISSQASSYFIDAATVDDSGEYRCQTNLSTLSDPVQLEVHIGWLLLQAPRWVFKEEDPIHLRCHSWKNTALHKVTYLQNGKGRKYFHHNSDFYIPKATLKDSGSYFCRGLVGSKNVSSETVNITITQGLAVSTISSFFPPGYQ

[10] = biological target: T1, cynomolgus monkey FcγRIIa1 …; assay: SPR (BIACORE); KD of parent SG1 / KD of variant;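 further: relative to parent M103205H795-SG1 carrying the SG1 human heavy chain constant region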
[11] = biological target: T2, cynomolgus monkey FcγRIIa2 …; assay: SPR (BIACORE); KD of parent SG1 / KD of variant;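 further: relative to parent M103205H795-SG1 carrying the SG1 human heavy chain constant region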
[12] = biological target: T3, cynomolgus monkey FcγRIIa3 …; assay: SPR (BIACORE); KD of parent SG1 / KD of variant;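 further: relative to parent M103205H795-SG1 carrying the SG1 human heavy chain constant region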
[13] = biological target: T4, cynomolgus monkey FcγRIIb extracellular …; assay: SPR (BIACORE); KD of parent SG1 / KD of variant;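 further: relative to parent M103205H795-SG1 carrying the SG1 human heavy chain constant region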
[14] = biological target: T5, cynomolgus monkey FcγRIIIaS …; assay: SPR (BIACORE); KD of parent SG1 / KD of variant
[15] = biological target: T6, human FcγRIIaH extracellular domain, …; assay: SPR (BIACORE); KD of parent SG1 / KD of variant
[16] = biological target: T7, human FcγRIIaR extracellular domain, …; assay: SPR (BIACORE); KD of parent SG1 / KD of variant
[17] = biological target: T8, human FcγRIIb extracellular domain, …; assay: SPR (BIACORE); KD of parent SG1 / KD of variant
[18] = biological target: T9, human FcγRIIIaV extracellular domain, …; assay: SPR (BIACORE); KD of parent SG1 / KD of variant

B1: M103240H795-SG1077 / M103202L1045-SK1 (antibody)
heavy: QVQLVESGGGLVQPGGSLRLSCAVSGIDLSHDDISWVRQAPGKGLEWVSIISYAGSTYYASWAKGRLTISKDTSKNQVVLTMTNMDPVDTATYYCARGVPAYSHGGDLWGQGTLVTVSSASTKGPSVFPLAPSSKSTSGGTAALGCLVKDYFPEPVTVSWNSGALTSGVHTFPAVLQSSGLYSLSSVVTVPSSSLGTQTYICNVNHKPSNTKVDKKVEPKSCDKTHTCPPCPAPELWNGPSVFLFPPKPKDTLMISRTPEVTCVVVDVSDEDPEVKFNWYVDGVEVHNAKTKPREELYNSTYRVVSVLTVLHRDWLNGKEYKCKVSNTALPKPIEKTISKAKGQRREPQVYTLPPSREEMTKNQVSLTCLVKGFYPSDIAVEWESNGQPENNYKTTPPVLDSDGSFFLYSKLTVDKSRWQQGNVFSCSVLHEALHAHTTRKELSLSP
light: DIVMTQSPATLSLSPGERATLSCTTSQSVYHENWLSWFQQKPGQPPKLLIYWASTLAYGVPSRFSGSGSGTDFTLTISSLQPEDAATYYCAGGYGGGRYAFGQGTKVEIKRTVAAPSVFIFPPSDEQLKSGTASVVCLLNNFYPREAKVQWKVDNALQSGNSQESVTEQDSKDSTYSLSSTLTLSKADYEKHKVYACEVTHQGLSSPVTKSFNRGEC
notes: CH with L235W/G236N/H268D/Q295L/Q311R/K326T/A330K/P343R/M428L/N434A/Y436T/Q438R/S440E against SG1 (EU numbering); also called MS1032LO19-SG1077
Kd [1]: 1.4 µM | Kd [2]: 1.3 µM | Kd [3]: 2 µM | Kd [4]: 0.32 µM | Kd [5]: 2.9 µM | Kd [6]: 0.93 µM | Kd [7]: 0.69 µM | Kd [8]: 0.51 µM | Kd [9]: 3.4 µM | KD fold (SG1 = 1) [10]: 2.7 fold | KD fold (SG1 = 1) [11]: 3.1 fold | KD fold (SG1 = 1) [12]: 3.3 fold | KD fold (SG1 = 1) [13]: 5.4 fold | KD fold (SG1 = 1) [14]: 0.09 fold | KD fold (SG1 = 1) [15]: 1 fold | KD fold (SG1 = 1) [16]: 1.4 fold | KD fold (SG1 = 1) [17]: 7.5 fold | KD fold (SG1 = 1) [18]: 0.17 fold
